# Patent US20150284465A1 (Chugai, published 2015)
# Read-outs that look alike come from different tables or passages of the source.
# T1: SR344 (N-terminal 1st to 344th amino acids of soluble human IL-6R) (human, UniProt P08887 20-344, limits assumed)
# T1 construct: also called recombinant soluble IL-6 receptor; soluble human IL-6 receptor
# T1 sequence (looked up): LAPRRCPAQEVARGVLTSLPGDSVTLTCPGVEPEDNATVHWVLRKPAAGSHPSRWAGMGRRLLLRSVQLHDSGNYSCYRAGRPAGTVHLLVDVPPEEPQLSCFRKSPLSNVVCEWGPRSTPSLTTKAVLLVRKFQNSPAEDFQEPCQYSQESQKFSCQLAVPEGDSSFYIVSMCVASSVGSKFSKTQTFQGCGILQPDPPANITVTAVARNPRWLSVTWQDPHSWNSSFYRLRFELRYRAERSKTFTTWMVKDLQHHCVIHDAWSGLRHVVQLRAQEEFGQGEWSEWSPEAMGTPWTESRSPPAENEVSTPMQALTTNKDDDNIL
# B1: Fv3-M73 (antibody, V domains shown)
# VH: QVQLQESGPGLVKPSETLSLTCAVSGHSISHDHAWSWVRQPPGEGLEWIGFISYSGITNYNPTLQGRVTISRDNSKNTLYLQMNSLRAEDTAVYYCARSLARTTAMDYWGEGTLVTVSS
# VL: DIQMTQSPSSLSASVGDSVTITCQASRDISSHLNWYQQKPGKAPELLIYYGSHLLSGVPSRFSGSGSGTDFTFTISSLEAEDAATYYCGQGNRLPYTFGQGTKVEIER
# notes: also called VH4-M73/VL1-kappa
# B2: Fv4-M73 (antibody, V domains shown)
# VH: QVQLQESGPGLVKPSETLSLTCAVSGHSISHDHAWSWVRQPPGEGLEWIGFISYSGITNYNPSLQGRVTISRDNSKNTLYLQMNSLRAEDTAVYYCARSLARTTAMDYWGEGTLVTVSS
# VL: DIQMTQSPSSLSASVGDSVTITCQASTDISSHLNWYQQKPGKAPELLIYYGSHLLSGVPSRFSGSGSGTDFTFTISSLEAEDAATYYCGQGNRLPYTFGQGTKVEIER
# notes: also called VH3-M73/VL3-kappa
# B3: WT-M58 (antibody)
# heavy: QVQLQESGPGLVRPSQTLSLTCTVSGYSITSDHAWSWVRQPPGRGLEWIGYISYSGITTYNPSLKSRVTMLRDTSKNQFSLRLSSVTAADTAVYYCARSLARTTAMDYWGQGSLVTVSSASTKGPSVFPLAPSSKSTSGGTAALGCLVKDYFPEPVTVSWNSGALTSGVHTFPAVLQSSGLYSLSSVVTVPSSNFGTQTYTCNVDHKPSNTKVDKTVERKSCVECPPCPAPPVAGPSVFLFPPKPKDTLMISRTPEVTCVVVDVSQEDPEVQFNWYVDGVEVHNAKTKPREEQFNSTFRVVSVLTVVHQDWLNGKEYKCKVSNKGLPAPIEKTISKTKGQPREPQVYTLPPSQEEMTKNQVSLTCLVKGFYPSDIAVEWESNGQPENNYKTTPPMLDSDGSFFLYSKLTVDKSRWQEGNVFSCSVMHEALHNHYTQKSLSLSP
# light: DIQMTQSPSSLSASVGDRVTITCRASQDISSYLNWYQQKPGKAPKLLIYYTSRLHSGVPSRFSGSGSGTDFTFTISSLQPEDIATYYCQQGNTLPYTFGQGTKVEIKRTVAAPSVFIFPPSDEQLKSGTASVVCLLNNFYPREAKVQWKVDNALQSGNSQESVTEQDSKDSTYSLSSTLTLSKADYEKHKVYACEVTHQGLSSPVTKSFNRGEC
# notes: also called M58 (WT)
# B4: WT-M73 (antibody)
# heavy: QVQLQESGPGLVRPSQTLSLTCTVSGYSITSDHAWSWVRQPPGRGLEWIGYISYSGITTYNPSLKSRVTMLRDTSKNQFSLRLSSVTAADTAVYYCARSLARTTAMDYWGQGSLVTVSSASTKGPSVFPLAPSSKSTSGGTAALGCLVKDYFPEPVTVSWNSGALTSGVHTFPAVLQSSGLYSLSSVVTVPSSNFGTQTYTCNVDHKPSNTKVDKTVERKSCVECPPCPAPPVAGPSVFLFPPKPKDTLMISRTPEVTCVVVDVSQEDPEVQFNWYVDGVEVHNAKTKPREEQFNSTFRVVSVLTVVHQDWLNGKEYKCKVSNKGLPAPIEKTISKTKGQPREPQVYTLPPSQEEMTKNQVSLTCLVKGFYPSDIAVEWESNGQPENNYKTTPPMLDSDGSFFLYSKLTVDKSRWQEGNVFSCSVMHEALHAHYTQKSLSLSP
# light: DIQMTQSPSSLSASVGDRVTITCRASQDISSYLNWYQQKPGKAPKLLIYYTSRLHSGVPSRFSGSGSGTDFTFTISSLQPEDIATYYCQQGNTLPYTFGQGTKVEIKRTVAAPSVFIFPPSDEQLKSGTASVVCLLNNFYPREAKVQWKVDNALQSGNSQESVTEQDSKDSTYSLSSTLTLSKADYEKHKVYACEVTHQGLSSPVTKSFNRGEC
# B5: H53/L28 (antibody, IgG1, V domains shown)
# VH: QVQLQESGPGLVKPSETLSLTCAVSGYSISDDHAWSWVRQPPGEGLEWIGYISYSGITNYNPSLKGRVTISRDTSKNQFSLKLSSVTAADTAAYYCARSLARTTAMDYWGEGTLVTVSS
# VL: DIQMTQSPSSLSASVGDSVTITCQASQDISSYLNWYQQKPGKAPELLIYYGSELHSGVPSRFSGSGSGTDFTFTISSLEAEDAATYYCQQGNSLPYTFGQGTKVEIE
# notes: Made from the vectors of the IgG1 antibody WT
# B6: PF1 antibody (antibody, IgG1, V domains shown)
# VH: QVQLQESGPGLVKPSETLSLTCAVSGYSISDDHAWSWVRQPPGEGLEWIGYISYSGITNYNPSLKGRVTISRDTSKNQFSLKLSSVTAADTAAYYCARVLARITAMDYWGEGTLVTVSS
# VL: DIQMTQSPSSLSASVGDSVTITCQASQDISSYLNWYQQKPGKAPELLIYYGSELHSGVPSRFSGSGSGTDFTFTISSLEAEDAATYYCGQGNRLPYTFGQGTKVEIE
# notes: also called PF1-IgG1; PF1_H/PF1_L
# Assays:
# [1] = target: T1, SR344 (N-terminal 1st to 344th amino …); assay: SPR (Biacore T100), antibody captured on anti-IgG (γ-chain specific) F(ab')2, SR344 as analyte, pH 7.4, 37 C
# Procedure: Antigen-antibody reaction kinetics was analyzed using Biacore T100 (GE Healthcare). The SR344-antibody interaction was measured by immobilizing appropriate amounts of anti-IgG (γ-chain specific) F(ab′)2 onto a sensor chip by amine coupling method, binding antibodies of interest onto the chip at pH 7.4, and then flowing IL-6 receptor SR344 adjusted to be various concentrations at pH 7.4 over the chip as an analyte. All measurements were carried out at 37° C. The kinetic parameters, association rate constant kₐ (1/Ms) and dissociation rate constant kd (1/s) were calculated from the sensorgrams obtained by measurement. Then, KD (M) was determined based on the rate constants. The respective parameters were determined using Biacore T100 Evaluation Software (GE Healthcare).
# [2] = target: T1, SR344 (N-terminal 1st to 344th amino …); assay: SPR (Biacore T100), SR344 as analyte, 37 C
# [3] = target: T2, soluble human FcRn (complex of FcRn and β2-microglobulin) (human, UniProt P55899 24-290; P16213 21-119); assay: SPR (Biacore 3000), antibody captured on Protein L or anti-human kappa chain antibody, human FcRn as analyte, pH 6.0, steady state affinity
# T2 construct: also called hFcRn; copies: 1 + 1
# Procedure: (§1) The binding to human FcRn was assessed using Biacore 3000. An antibody was bound to Protein L or rabbit anti-human IgG Kappa chain antibody immobilized onto a sensor chip, human FcRn was added as an analyte for interaction with the antibody, and the affinity (KD) was calculated from the amount of bound human FcRn. Specifically, Protein L or rabbit anti-human IgG Kappa chain antibody was immobilized onto sensor chip CM5 (Biacore) by the amine coupling method using 50 mM Na-phosphate buffer (pH 6.0) containing 150 mM NaCl as the running buffer. Then, an antibody was diluted with a running buffer containing 0.02% Tween20, and injected to be bound to the chip. Human FcRn was then injected and the binding activity of the human FcRn to antibody was assessed.
# (§2) The affinity was computed using BlAevaluation Software. The obtained sensorgram was used to calculate the amount of hFcRn bound to the antibody immediately before the end of human FcRn injection. The affinity of the antibody for human FcRn was calculated by fitting with the steady state affinity method.
# [4] = target: T2, soluble human FcRn (complex of FcRn and …); assay: SPR (Biacore 3000), human FcRn as analyte, pH 6.0
# [5] = target: T2, soluble human FcRn (complex of FcRn and …); assay: SPR (Biacore 3000), antibody captured on Protein L or anti-human kappa chain antibody, human FcRn as analyte, pH 6.0, steady state affinity; remark: listed apart in the source
# Procedure: as §1, §2
# [6] = target: T1, SR344 (N-terminal 1st to 344th amino …); assay: SPR (Biacore T100), antibody captured on Protein A/G, SR344 as analyte, 37 C
# [7] = target: T1, SR344 (N-terminal 1st to 344th amino …); assay: as above; remark: listed apart in the source
# Procedure: The antigen-antibody interaction was measured by immobilizing purified Recomb Protein A/G (Pierce) (hereinafter “Protein A/G”) onto a sensor chip, binding various antibodies onto the chip, and then flowing the antigen over the chip as an analyte. Various concentrations of recombinant soluble IL-6 receptor (SR344) were used as the antigen. The measurement conditions were the same as described in Example 2.
# Kinetic analysis was carried out using Biacore-specific data analysis software Biacore T100 Evaluation Software.
# [8] = target: T1, SR344 (N-terminal 1st to 344th amino …); assay: as above; remark: listed apart in the source
# Procedure: (§3) This measurement was carried out under the same conditions described in Example 2. The running buffer used was HBS-EP+, and the flow rate was 20 μl/min. Each antibody was prepared so that about 100 RU of the antibody was bound to Protein A/G. SR344 was prepared at 0, 0.065, 0.131, and 0.261 μg/ml using HBS-EP+ and used as an analyte. In the first step of the measurement, the antibody in solution was bound to Protein A/G, and the analyte solution was allowed to interact therewith. After three minutes of interaction, the solution was switched to HBS-EP+, and the dissociation phase was monitored for 10 or 15 minutes. After measurement of the dissociation phase, the sensor chip was regenerated by washing with 10 μl of 10 mM glycine-HCl (pH 1.5). The association, dissociation, and regeneration constitute one analysis cycle. Each antibody was measured according to this cycle.
# The sensorgram was kinetically analyzed using the Biacore-specific data analysis software, Biacore T100 Evaluation Software.
# [9] = target: T1, SR344 (N-terminal 1st to 344th amino …); assay: SPR (Biacore T100), Protein A/G capture, SR344 at 0, 0.36 and 1.4 µg/ml, 15 min dissociation, 37 C
# Procedure: as §3
# The Tm of purified H96/PF1L-IgG1 was determined by the method described in Example 5. The affinity measurement was carried out under essentially the same conditions used in Example 5. Note that the concentration of SR344 was adjusted to 0, 0.36, and 1.4 μg/ml, and the dissociation phase was monitored for 15 minutes.
# [10] = target: T1, SR344 (N-terminal 1st to 344th amino …); assay: as above; remark: listed apart in the source
# T2 sequence (P55899 24-290 limits assumed, chain 1 of 2): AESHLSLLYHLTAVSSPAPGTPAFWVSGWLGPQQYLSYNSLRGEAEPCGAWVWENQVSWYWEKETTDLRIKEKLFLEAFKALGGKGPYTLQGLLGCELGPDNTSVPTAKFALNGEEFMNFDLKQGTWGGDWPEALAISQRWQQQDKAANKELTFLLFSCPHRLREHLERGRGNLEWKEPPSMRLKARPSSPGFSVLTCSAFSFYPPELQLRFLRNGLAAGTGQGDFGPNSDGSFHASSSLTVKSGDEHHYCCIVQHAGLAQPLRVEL
# T2 sequence (P16213 21-119 limits assumed, chain 2 of 2): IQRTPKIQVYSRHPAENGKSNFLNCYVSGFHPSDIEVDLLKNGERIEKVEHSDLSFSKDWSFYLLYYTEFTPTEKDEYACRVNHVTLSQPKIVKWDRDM
Binder,Kd [1],koff [1],kon [1],fold higher affinity than TOCILIZUMAB [2],Kd [3],binding activity relative to WT-IgG1 [4],fold improved affinity against WT [6],Kd [8],koff [8],kon [8],further results
B1,1 nM,0.00087 s⁻¹,850000 M⁻¹ s⁻¹,3 fold,,,,,,,
B2,1.4 nM,0.001 s⁻¹,750000 M⁻¹ s⁻¹,2 fold,,,,,,,
B3,,,,,1170 nM,~1.4 fold,,,,,Kd [5]: 1030 nM
B4,,,,,420 nM,~3.8 fold,,,,,
B5,,,,,,,~6 fold,0.68 nM,0.00052 s⁻¹,760000 M⁻¹ s⁻¹,Kd [7]: 0.68 nM; koff [7]: 0.00052 s⁻¹; kon [7]: 760000 M⁻¹ s⁻¹
B6,,,,,,,~150 fold,0.027 nM,3.5e-05 s⁻¹,1.3e+06 M⁻¹ s⁻¹,Kd [9]: 0.031 nM; koff [9]: 4.2e-05 s⁻¹; kon [9]: 1.4e+06 M⁻¹ s⁻¹; Kd [10]: 0.03 nM; koff [10]: 4.4e-05 s⁻¹; kon [10]: 1.5e+06 M⁻¹ s⁻¹
